Drawing on paper PMC6706441, “B1 oligomerization regulates PML nuclear body biogenesis and leukemogenesis” (Nature Communications, 2019), this text covers response for three variants.

To fix the notation:
B1: full-length PML isoform IV, wild type (mammalian two-hybrid fusions) [human (by the printed UniProt code P29590-5)] / full-length PML isoform IV, wild type (mammalian two-hybrid fusions) [human (by the printed UniProt … (parent)
chain 1: MEPAPARSPRPQQDPARPQEPTMPPPETPSEGRQPSPSPSPTERAPASEEEFQFLRCQQCQAEAKCPKLLPCLHTLCSGCLEASGMQCPICQAPWPLGADTPALDNVFFESLQRRLSVYRQIVDAQAVCTRCKESADFWCFECEQLLCAKCFEAHQWFLKHEARPLAELRNQSVREFLDGTRKTNNIFCSNPNHRTPTLTSIYCRGCSKPLCCSCALLDSSHSELKCDISAEIQQRQEELDAMTQALQEQDSAFGAVHAQMHAAVGQLGRARAETEELIRERVRQVVAHVRAQERELLEAVDARYQRDYEEMASRLGRLDAVLQRIRTGSALVQRMKCYASDQEVLDMHGFLRQALCRLRQEEPQSLQAAVRTDGFDEFKVRLQDLSSCITQGKDAAVSKKASPEAASTPRDPIDVDLPEEAERVKAQVQALGLAEAQPMAVVQSVPGAHPVPVYAFSIKGPSYGEDVSNTTTAQKRKCSQTQCPRKVIKMESEEGKEARLARSSPEQPRPSTSKAVSPPHLDGPPSPRSPVIGSEVFLPNSNHVASGAGEAEERVVVISSSEDSDAENSSSRELDDSSSESSDLQLEGPSTLRVLDENLADPQAEDRPLVFFDLKIDNESGFSWGYPHPFLI
chain 2: B1 chain 1

In this assay the parent is B1. The experiment in a line: mammalian two-hybrid assay. Conditions: with full-length PML isoform IV, parent: 38, read off a plot, scale: fold change.
With chain 1 I122P V123P, the response was found to be 21.

For chain 1 W157E, the response is 3.2.

Turning to chain 1 F158E, the response was 2.8.
